Assay [1] has as its target FcγRII receptor (CD32) on human platelets (human) (UniProt P12318).
Assay [2] has the same target. The source holds these as a separate data set.

Substance CD32 antibody IV.3 (M.Ab.IV.3) had a concentration that doubled the latency of M.Ab.F11-induced aggregation in assay [1] of 150 ng/mL. This substance came in with an inhibition of M.Ab.F11-induced ^14 C-serotonin release in assay [2] of 1 µg/mL.

Values taken from patent US5665701.
